According to article PMC5587760, “Halotolerant aminopeptidase M29 from Mesorhizobium SEMIA 3007 with biotechnological potential and its impact on biofilm synthesis” (Scientific Reports, 2017):

How the values were obtained:
[1] = system: CC(C)C[C@H](N)C(=O)Nc1ccc([N+](=O)[O-])cc1; assay: purified protein; conditions: 3 mM Co2+, pH 8.5, 40 °C (abstract: 45 °C optimum)
[2] = target: MesoAmp, aminopeptidase M29 (Aminopeptidase T) from Mesorhizobium SEMIA 3007 (Mesorhizobium SEMIA 3007); assay: SEC; Hiload16/600 Superdex 200, 100 mM Tris-HCl pH 8.0, 200 mM NaCl, 5% (w/v) glycerol, 0.5 mL/min; native mass estimated from a calibration curve of standard proteins and compared with the mass on SDS-PAGE

| Substance | Km [1] [µM] | kcat [1] [s⁻¹] | stoichiometry N [2] |
| --- | --- | --- | --- |
| MesoAmp (Mesorhizobium sp. SEMIA 3007) | 236.4 ± 18.2 | 712.1 ± 88.12 | – |
| MesoAmp, aminopeptidase M29 (Aminopeptidase T) from Mesorhizobium SEMIA 3007 (enzyme) | – | – | 2 |
